In paper PMC6009593:

Molecular target: Mre11 (PfuMR complex);Rad50 (PfuMR complex) (Pyrococcus furiosus;Pyrococcus furiosus, UniProt Q8U1N9;P58301 1-426;1-882, |)
Assay: EMSA

Mre11 (PfuMR complex);Rad50 (PfuMR complex), sequence (P58301 whole entry, one chain of several): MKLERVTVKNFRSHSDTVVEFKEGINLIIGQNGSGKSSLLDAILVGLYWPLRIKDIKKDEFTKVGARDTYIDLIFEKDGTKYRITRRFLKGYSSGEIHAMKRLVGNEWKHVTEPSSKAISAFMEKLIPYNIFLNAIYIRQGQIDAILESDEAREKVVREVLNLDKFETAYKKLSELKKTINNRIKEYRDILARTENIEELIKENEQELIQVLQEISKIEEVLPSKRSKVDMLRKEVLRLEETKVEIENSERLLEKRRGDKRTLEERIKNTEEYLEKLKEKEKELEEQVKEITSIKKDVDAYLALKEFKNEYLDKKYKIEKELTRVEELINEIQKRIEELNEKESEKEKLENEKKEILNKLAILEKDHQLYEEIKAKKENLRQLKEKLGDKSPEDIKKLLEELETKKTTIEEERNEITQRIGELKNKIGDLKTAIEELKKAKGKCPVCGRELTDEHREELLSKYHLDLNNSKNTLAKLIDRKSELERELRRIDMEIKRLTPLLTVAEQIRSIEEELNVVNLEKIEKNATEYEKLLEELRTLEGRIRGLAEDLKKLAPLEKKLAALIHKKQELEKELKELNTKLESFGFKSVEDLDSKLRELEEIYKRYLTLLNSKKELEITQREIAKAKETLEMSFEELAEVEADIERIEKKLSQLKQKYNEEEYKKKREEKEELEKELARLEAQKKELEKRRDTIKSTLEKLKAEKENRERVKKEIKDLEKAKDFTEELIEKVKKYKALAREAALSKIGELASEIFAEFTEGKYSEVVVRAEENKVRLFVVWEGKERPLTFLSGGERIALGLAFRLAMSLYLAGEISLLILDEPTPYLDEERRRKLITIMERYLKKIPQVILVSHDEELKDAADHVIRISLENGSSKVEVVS

B1: S50/50s (dsDNA)
DNA 1: CTGCAGGGTTTTTGTTCCAGTCTGTAGCACTGTGTAAGACAGGCCAGATG
DNA 2: CATCTGGCCTGTCTTACACAGTGCTACAGACTGGAACAAAAACCCTGCAG
modifications: phosphorothioate bonds at the last 5 linkages of the 3' end of strand 2 (CCCsTsGsCsAsG)
  binding result: binds
